From patent publication US20240117035A1

Assays:
[1] = molecular target: human CLDN18.2 on cells (human) (UniProt P56856); assay: flow cytometry on hCLDN18.2-expressing HEK293 cells
[2] = molecular target: human CLDN18.2 on cells (human) (UniProt P56856); assay: flow cytometry on SNU601 cells

B1: m-anti-human CLDN18.2-13 monoclonal antibody (antibody, mouse IgG2a, kappa, V domains shown)
VH: QLQLQQSGTELVRPGSSVKISCKASGYAFSNYWMNWVKQRPGQGLEWIGQIYPGNGDTKYNGNFKGKATLTADKSSSTAYMQLSSLTSEDSADYFCARYYRGNCFDYWGQGTTLTVSS
VL: DIVLTQSPSSLTVTAGEKVTMSCKSSQSLLNSGNQKNYLTWYQQKPGQPPKLLIYWASTRDSGVPARFTGSGSGTDFTLTINSVQAEDLAVYYCQNAYTYPLTFGAGTKLEIKR
[1]
  IC50: 0.701 µg/mL
[2]
  IC50: 0.811 µg/mL
